Primed or numbered codes have the meaning given here. Ends that are not written are not given here. FITC′ = fluorescein isothiocyanate label; Ahx = NCCCCCC(=O)O

Common to all, as to experiment: fluorescence polarisation; 150 nM FITC-Ahx-labelled peptide mixed with increasing capsid NTD protein (2 μM to 2 mM) in 50 mM Tris-HCl pH 8.0, 50 mM NaCl, 384-well plates; one-site specific binding model; the EIAV constants are called apparent
Holding throughout (conditions): both partners purified
A general note: Polarisation of emitted light reports the rotation of a fluorescent probe.

Assay [1] has as its target T1, CPSF6_(276–290/F284A) peptide (human, F284A (stands in the printed letters)).
T1 construct: cleavage and polyadenylation specificity factor 6 (CPSF6), human, residues 276-290 counted on the 551-residue isoform CPSF6[551], with F284A; source: synthetic peptide (GenScript)

In assay [2] the target is T2, CPSF6_(276–290) peptide (human, N-terminal fluorescein isothiocyanate (FITC)-Ahx).
T2 construct: also called CPSF6 peptide; fluorescently labeled CPSF6_(276–290) peptide; source: synthetic peptide (GenScript)

Assay [3] deals with T2, CPSF6_(276–290) peptide. This is another data set of the same source.

B1: FIV capsid N-terminal domain (NTD) protein (domain or fragment)
chain: PIQTVNGVPQYVALDPKMVSIFMEKAREGLGGEEVQLWFTAFSANLTPTDMATLIMAAPGCAADKEILDESLKQLTAEYDRTHPPDAPRPLPYFTAAEIMGIGLTQEQQAEARFAPARMQCRAWYLEALGKLAAIKA
Turning to B1, the values for the Kd in assay [1], in assay [2] and in assay [3] were more than 7 mM, more than 4 mM and more than 2 mM, respectively.

B2: EIAV capsid N-terminal domain (NTD) protein (domain or fragment)
chain: PIMIDGAGNRNFRPLTPRGYTTWVNTIQTNGLLNEASQNLFGILSVDCTSEEMNAFLDVVPGQAGQKQILLDAIDKIADDWDNRHPLPNAPLVAPPQGPIPMTARFIRGLGVPRERQMEPAFDQFRQTYRQWIIEAMSEGIKVMIG
For B2, the Kd in assay [1] worked out at 0.466 mM.

B3: MLV capsid N-terminal domain (NTD) protein (domain or fragment)
chain: PLRAGGNGQLQYWPFSSSDLYNWKNNNPSFSEDPGKLTALIESVLITHQPTWDDCQQLLGTLLTGEEKQRVLLEARKAVRGDDGRPTQLPNEVDAAFPLERPDWDYTTQAGRNHLVHYRQLLLAGLQNAGRS
As to B3, the Kd was more than 5 mM in assay [2] and more than 2 mM in assay [3].

B4: BIV capsid N-terminal domain (NTD) protein (domain or fragment)
chain: PAITTQDGTPRFDPDLMKQLKIWSDATERNGVDLHAVNILGVITANLVQEEIKLLLNSTPKWRLDVQLIESKVREKENAHRTWKQHHPEAPKTDEIIGKGLSSAEQATLISVECRETFRQWVLQAAMEVAQAKHATPG
Consider B4, for which the Kd in assay [1] is more than 3 mM; in assay [2] it was more than 5 mM; in assay [3], more than 2 mM.

These data come from publication PMC7527728, “CPSF6-Dependent Targeting of Speckle-Associated Domains Distinguishes Primate from Nonprimate Lentiviral Integration” (mBio, 2020).
